Source: the supplement of paper PMC10065799, “High-throughput profiling of sequence recognition by tyrosine kinases and SH2 domains using bacterial peptide display” (eLife, 2023)

What was measured:
c-Src SH2 = test: SH2 binding enrichment of the phosphorylated peptide, bacterial display (enrichment ratio); higher = better substrate or ligand; peptides without Tyr show the background
SHP2-C SH2 = test: as above
Grb2 SH2 = Grb2 SH2 (UniProt P62993); test: as above
c-Abl (mouse) = test: phosphorylation enrichment, bacterial display (enrichment ratio); higher = better substrate or ligand; peptides without Tyr show the background
FGFR1 = FGFR1 (UniProt P11362); test: as above
AncSZ = test: as above
MERTK = MERTK (UniProt Q12866); test: as above
c-Src = test: as above
Fes = Fes (UniProt P07332); test: as above
Fer (mouse) = test: as above
Hck = Hck (UniProt P08631); test: as above
FGFR3 = FGFR3 (UniProt P22607); test: as above
EPHB2 = EPHB2 (UniProt P29323); test: as above
Jak2 = Jak2 (UniProt O60674); test: as above
EPHB1 = EPHB1 (UniProt P54762); test: as above
Fyn = Fyn (UniProt P06241); test: as above
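Throughout, for SH2 binding enrichment of the phosphorylated peptide, bacterial display: peptide library displayed on the E. coli surface as eCPX fusions, selected cells deep-sequenced, score is each peptide's frequency after selection divided by its frequency in the input.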
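Throughout, for phosphorylation enrichment, bacterial display: 11-residue human phosphosite peptides and single-mutation variants displayed on the E. coli surface, counted by deep sequencing, each peptide's frequency after selection divided by its frequency in the unselected input library; frequency after pTyr selection over input frequency; kinase dosed for 20-30% of maximal phosphorylation in three min.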

MERTK, sequence (Q12866 whole entry, looked up): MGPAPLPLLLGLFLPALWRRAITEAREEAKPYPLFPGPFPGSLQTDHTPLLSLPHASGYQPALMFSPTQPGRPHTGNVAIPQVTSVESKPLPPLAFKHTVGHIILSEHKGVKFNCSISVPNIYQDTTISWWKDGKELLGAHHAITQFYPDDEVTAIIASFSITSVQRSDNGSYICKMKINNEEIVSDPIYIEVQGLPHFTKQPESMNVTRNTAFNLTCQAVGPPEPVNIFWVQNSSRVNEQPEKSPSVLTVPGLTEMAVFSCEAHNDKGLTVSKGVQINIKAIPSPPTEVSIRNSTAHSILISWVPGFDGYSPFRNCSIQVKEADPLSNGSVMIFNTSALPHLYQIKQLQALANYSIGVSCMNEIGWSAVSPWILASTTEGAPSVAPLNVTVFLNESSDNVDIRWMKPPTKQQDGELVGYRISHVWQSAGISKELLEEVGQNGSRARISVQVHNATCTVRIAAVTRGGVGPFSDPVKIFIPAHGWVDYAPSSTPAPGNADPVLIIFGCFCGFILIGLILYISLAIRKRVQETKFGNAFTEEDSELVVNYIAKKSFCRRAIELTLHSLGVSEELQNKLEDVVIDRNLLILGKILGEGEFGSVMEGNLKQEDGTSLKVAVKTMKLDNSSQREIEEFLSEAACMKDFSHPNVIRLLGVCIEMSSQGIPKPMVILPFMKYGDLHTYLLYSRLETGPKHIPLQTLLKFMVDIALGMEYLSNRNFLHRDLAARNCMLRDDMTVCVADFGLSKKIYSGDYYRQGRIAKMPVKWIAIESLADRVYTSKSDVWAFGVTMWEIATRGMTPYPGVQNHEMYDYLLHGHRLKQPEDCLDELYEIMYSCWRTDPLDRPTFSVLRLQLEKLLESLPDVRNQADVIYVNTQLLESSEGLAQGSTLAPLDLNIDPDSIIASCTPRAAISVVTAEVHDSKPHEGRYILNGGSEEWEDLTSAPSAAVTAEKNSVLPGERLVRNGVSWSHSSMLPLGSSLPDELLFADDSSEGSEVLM
EPHB1, sequence (P54762 whole entry, looked up): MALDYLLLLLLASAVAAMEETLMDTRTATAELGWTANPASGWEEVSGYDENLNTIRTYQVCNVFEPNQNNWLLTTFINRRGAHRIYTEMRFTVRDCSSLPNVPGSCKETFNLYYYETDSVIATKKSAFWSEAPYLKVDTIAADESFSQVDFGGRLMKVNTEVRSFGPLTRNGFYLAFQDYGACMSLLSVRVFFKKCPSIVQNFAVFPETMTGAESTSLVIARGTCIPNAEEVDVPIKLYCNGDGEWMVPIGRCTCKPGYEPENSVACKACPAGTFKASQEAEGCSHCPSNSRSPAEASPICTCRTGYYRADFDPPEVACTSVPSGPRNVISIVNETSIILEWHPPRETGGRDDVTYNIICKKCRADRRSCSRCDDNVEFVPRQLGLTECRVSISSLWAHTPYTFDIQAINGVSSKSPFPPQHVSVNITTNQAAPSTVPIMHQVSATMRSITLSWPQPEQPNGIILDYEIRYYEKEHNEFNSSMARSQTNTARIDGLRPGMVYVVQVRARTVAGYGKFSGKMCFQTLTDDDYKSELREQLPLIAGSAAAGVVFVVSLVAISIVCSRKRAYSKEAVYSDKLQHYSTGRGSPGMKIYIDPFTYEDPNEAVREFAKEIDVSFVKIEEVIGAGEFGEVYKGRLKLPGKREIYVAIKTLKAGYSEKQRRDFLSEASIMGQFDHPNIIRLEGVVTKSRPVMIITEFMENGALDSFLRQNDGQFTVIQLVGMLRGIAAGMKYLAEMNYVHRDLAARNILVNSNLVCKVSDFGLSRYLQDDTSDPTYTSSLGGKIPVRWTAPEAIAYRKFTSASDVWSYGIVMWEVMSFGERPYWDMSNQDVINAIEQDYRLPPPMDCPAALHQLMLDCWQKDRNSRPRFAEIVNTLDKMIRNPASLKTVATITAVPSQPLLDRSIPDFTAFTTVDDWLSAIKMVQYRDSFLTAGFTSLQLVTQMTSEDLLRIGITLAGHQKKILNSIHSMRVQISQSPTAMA
Fes, sequence (P07332 whole entry, looked up): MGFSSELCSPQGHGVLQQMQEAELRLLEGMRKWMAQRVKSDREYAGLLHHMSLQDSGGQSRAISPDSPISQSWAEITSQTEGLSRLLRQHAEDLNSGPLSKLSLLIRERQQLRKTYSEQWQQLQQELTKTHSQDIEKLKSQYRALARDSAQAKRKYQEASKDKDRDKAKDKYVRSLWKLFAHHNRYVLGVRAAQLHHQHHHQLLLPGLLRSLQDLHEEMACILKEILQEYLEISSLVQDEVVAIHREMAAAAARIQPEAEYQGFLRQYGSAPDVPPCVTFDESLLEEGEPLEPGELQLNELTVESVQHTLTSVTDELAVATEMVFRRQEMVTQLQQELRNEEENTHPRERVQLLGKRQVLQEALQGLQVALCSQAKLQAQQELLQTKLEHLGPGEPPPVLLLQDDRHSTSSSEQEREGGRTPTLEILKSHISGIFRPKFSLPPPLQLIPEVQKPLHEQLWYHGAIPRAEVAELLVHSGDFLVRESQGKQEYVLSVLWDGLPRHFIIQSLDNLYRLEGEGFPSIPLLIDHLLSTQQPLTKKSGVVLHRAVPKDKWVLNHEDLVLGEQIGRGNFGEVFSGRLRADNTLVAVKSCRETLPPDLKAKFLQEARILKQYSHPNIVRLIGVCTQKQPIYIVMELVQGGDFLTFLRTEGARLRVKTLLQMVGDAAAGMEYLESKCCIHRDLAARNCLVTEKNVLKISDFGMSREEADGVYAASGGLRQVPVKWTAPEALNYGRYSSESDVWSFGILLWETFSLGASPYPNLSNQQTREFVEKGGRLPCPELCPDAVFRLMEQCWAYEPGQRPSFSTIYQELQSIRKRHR
Jak2, sequence (O60674 whole entry, looked up): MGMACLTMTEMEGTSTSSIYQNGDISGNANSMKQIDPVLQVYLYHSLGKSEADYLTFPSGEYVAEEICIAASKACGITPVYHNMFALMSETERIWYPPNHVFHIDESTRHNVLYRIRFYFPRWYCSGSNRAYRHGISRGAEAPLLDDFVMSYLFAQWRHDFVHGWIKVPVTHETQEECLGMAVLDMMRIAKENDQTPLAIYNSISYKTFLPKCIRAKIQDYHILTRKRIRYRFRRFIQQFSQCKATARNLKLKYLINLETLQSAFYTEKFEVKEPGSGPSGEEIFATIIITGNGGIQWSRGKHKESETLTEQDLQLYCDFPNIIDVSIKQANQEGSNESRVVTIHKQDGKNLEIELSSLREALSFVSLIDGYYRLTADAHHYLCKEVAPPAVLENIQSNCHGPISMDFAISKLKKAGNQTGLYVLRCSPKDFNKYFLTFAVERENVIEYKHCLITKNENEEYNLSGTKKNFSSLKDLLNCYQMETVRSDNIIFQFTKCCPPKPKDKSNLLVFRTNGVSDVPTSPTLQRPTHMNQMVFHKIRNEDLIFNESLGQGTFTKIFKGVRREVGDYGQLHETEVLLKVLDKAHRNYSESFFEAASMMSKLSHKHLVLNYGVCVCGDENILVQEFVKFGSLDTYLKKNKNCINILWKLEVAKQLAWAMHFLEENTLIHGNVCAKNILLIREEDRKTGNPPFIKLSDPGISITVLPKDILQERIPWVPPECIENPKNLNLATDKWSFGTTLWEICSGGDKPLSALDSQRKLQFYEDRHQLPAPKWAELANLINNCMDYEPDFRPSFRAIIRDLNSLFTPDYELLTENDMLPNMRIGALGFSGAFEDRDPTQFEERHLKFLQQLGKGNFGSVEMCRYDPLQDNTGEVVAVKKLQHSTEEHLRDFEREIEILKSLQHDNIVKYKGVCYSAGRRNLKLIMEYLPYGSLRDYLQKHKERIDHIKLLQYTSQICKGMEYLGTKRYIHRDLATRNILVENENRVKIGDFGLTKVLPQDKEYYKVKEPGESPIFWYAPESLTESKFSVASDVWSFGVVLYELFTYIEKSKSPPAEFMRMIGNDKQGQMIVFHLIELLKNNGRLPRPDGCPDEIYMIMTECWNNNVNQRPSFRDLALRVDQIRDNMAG
FGFR1, sequence (P11362 whole entry, looked up): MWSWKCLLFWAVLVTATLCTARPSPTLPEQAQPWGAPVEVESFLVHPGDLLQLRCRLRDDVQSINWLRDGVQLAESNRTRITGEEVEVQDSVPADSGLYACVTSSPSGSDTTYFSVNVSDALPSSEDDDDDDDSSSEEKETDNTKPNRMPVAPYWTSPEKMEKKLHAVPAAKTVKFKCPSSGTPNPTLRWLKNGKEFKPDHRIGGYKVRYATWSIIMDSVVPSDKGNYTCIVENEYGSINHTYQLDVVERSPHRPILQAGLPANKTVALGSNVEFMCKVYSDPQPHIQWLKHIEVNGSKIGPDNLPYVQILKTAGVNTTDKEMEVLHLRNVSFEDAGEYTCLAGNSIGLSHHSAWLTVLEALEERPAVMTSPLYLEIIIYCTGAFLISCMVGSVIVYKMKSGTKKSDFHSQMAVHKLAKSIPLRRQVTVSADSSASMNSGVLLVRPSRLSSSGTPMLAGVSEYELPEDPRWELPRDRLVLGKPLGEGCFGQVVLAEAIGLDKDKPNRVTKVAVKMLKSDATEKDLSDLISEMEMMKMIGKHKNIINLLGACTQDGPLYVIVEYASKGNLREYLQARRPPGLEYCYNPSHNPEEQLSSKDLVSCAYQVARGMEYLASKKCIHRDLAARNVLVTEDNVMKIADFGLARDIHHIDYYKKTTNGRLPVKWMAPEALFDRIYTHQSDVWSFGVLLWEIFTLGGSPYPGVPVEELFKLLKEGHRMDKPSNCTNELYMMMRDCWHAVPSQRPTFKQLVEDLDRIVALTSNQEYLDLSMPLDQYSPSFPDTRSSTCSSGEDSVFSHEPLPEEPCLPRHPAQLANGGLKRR
Grb2 SH2, sequence (P62993 whole entry, looked up): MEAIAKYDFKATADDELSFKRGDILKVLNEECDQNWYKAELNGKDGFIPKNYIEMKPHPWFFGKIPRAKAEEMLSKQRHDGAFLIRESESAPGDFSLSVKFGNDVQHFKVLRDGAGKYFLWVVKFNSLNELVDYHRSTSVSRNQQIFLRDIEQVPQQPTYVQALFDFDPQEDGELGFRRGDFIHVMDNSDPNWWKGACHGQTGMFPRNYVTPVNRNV

Sequence | SH2 binding enrichment (c-Src SH2) | SH2 binding enrichment (SHP2-C SH2) | SH2 binding enrichment (Grb2 SH2) | phosphorylation enrichment (c-Abl (mouse)) | phosphorylation enrichment (FGFR1) | phosphorylation enrichment (AncSZ) | phosphorylation enrichment (MERTK) | phosphorylation enrichment (c-Src) | phosphorylation enrichment (Fes) | phosphorylation enrichment (Fer (mouse)) | phosphorylation enrichment (Hck) | phosphorylation enrichment (FGFR3) | phosphorylation enrichment (EPHB2) | phosphorylation enrichment (Jak2) | phosphorylation enrichment (EPHB1) | phosphorylation enrichment (Fyn)
LAEMNYVHQDL [EPHB1_Y740_R743Q] | 0.445 | 0.923 | 0.983 | 0.533 | 0.581 | 1.12 | 0.46 | 0.411 | 1.22 | 0.716 | 0.51 | 1.01 | 0.72 | 0.744 | 1.37 | 0.674
LAVNPYGPPDL | 0.515 | 0.873 | 0.89 | 1.32 | 0.798 | 1.36 | 0.517 | 0.611 | 1.23 | 0.77 | 0.682 | 0.911 | 0.408 | 1.03 | 0.846 | 0.708
LCHELYNTIRD [PBRM1_Y54_V49L] | 4 | 1.04 | 1.21 | 0.929 | 0.973 | 1.21 | 0.796 | 3.39 | 1.03 | 0.869 | 6.12 | 0.905 | 0.785 | 2.44 | 0.675 | 1
LDFNEYFRDLN [HPRT1_Y198_YF] | 0.552 | 0.604 | 1.01 | 0.606 | 0.513 | 1.24 | 0.423 | 0.473 | 1.15 | 0.382 | 0.486 | 0.697 | 0.461 | 0.998 | 0.442 | 0.465
LDLPGYCLLRE [CCDC116_Y291_P293L] | 0.661 | 0.674 | 0.686 | 1.65 | 1.03 | 1.82 | 0.765 | 0.736 | 2.21 | 1.63 | 0.636 | 1.39 | 1.28 | 2.21 | 1.88 | 0.908
LDLSFYPTSSS [EMD_Y182_YF] | 0.417 | 0.686 | 0.698 | 1.69 | 0.991 | 1.42 | 0.596 | 0.404 | 1.77 | 0.799 | 0.89 | 0.902 | 0.904 | 0.976 | 1.33 | 0.968
LEDDVYRKTCT [XPA_Y257_M256V] | 0.39 | 0.291 | 0.604 | 1.74 | 1.05 | 1.89 | 0.864 | 1.2 | 2.07 | 1.09 | 1.17 | 2.23 | 0.724 | 2.14 | 1.14 | 1
LEHCQYVTEKV [ALDOB_Y204] | 0.744 | 0.821 | 0.756 | 1.18 | 1.6 | 1.83 | 1.04 | 0.822 | 2.85 | 1.91 | 0.839 | 1.91 | 1.55 | 1.68 | 1.74 | 1.59
LEKISYVYMKR [SSX7_Y48] | 1.02 | 3.38 | 1.03 | 1.3 | 0.784 | 1.72 | 0.81 | 0.547 | 1.75 | 0.875 | 1.18 | 1.32 | 1.37 | 1.37 | 1.23 | 1.21
LENSTYQYIRV [CRB1_Y760] | 1.72 | 8.46 | 1.55 | 0.91 | 13 | 2.11 | 7.03 | 3.07 | 1.86 | 25.5 | 10.9 | 7.65 | 5.02 | 1.11 | 12.1 | 5.14
LERFIYNREEF [HLA-DPB1_Y59_F64Y_YF] | 0.607 | 0.631 | 0.704 | 0.857 | 0.632 | 1.68 | 0.652 | 2.07 | 1.49 | 0.719 | 1.29 | 1.79 | 0.76 | 1.39 | 0.63 | 1.08
LFLALYTGLVR [PIGB_Y402_H407R] | 1.01 | 1.02 | 1.53 | 0.896 | 0.452 | 1.31 | 0.759 | 1.66 | 1.24 | 0.539 | 1.59 | 0.747 | 0.573 | 1.18 | 0.628 | 0.82
LGGSPYPGVPV [FGFR1_Y701] | 0.546 | 0.874 | 0.873 | 0.675 | 0.514 | 0.591 | 0.4 | 0.359 | 0.881 | 0.413 | 0.481 | 0.463 | 0.615 | 0.503 | 0.493 | 0.524
LGKGSYAKVKS [TSSK2_Y23] | 1.65 | 1.5 | 0.777 | 1.26 | 0.955 | 0.884 | 1.11 | 1.53 | 1.83 | 0.693 | 0.985 | 0.844 | 0.875 | 1.54 | 0.482 | 1.37
LGKGSYAKVRS [TSSK2_Y23_K27R] | 2.29 | 2.14 | 1.73 | 1.12 | 0.558 | 1.02 | 0.744 | 0.792 | 0.733 | 0.626 | 0.586 | 0.699 | 0.408 | 1.33 | 0.395 | 0.725
LGMSQYFRLFN [CPT2_Y217_D213G] | 0.805 | 3.46 | 1.06 | 0.581 | 0.704 | 0.966 | 0.58 | 0.381 | 1.26 | 0.499 | 0.64 | 0.766 | 0.839 | 3.24 | 0.601 | 0.364
LGNIVYSSLCG [BCOR_Y90_P85L] | 0.551 | 1.44 | 0.778 | 2.48 | 1.05 | 2.1 | 2.66 | 5.82 | 2.15 | 1.74 | 6.67 | 1.54 | 1.39 | 2.02 | 1.47 | 4.98

Sequence | SH2 binding enrichment (c-Src SH2) | SH2 binding enrichment (SHP2-C SH2) | SH2 binding enrichment (Grb2 SH2) | phosphorylation enrichment (c-Abl (mouse)) | phosphorylation enrichment (FGFR1) | phosphorylation enrichment (AncSZ) | phosphorylation enrichment (MERTK) | phosphorylation enrichment (c-Src) | phosphorylation enrichment (Fes) | phosphorylation enrichment (Fer (mouse)) | phosphorylation enrichment (Hck) | phosphorylation enrichment (FGFR3) | phosphorylation enrichment (EPHB2) | phosphorylation enrichment (Jak2) | phosphorylation enrichment (EPHB1) | phosphorylation enrichment (Fyn)
LGSNGYKKLLK [SEPSECS_Y334] | 0.396 | 0.576 | 0.723 | 0.543 | 0.338 | 0.697 | 0.773 | 0.755 | 0.841 | 0.351 | 0.635 | 0.636 | 0.437 | 0.59 | 0.42 | 0.879
LHQSTYQCYDV [SLC7A14_Y693_R695C] | 0.536 | 0.513 | 0.756 | 1.35 | 1.12 | 1.82 | 1.06 | 5.21 | 1.53 | 2.84 | 2.78 | 1.2 | 2.85 | 1.31 | 2.12 | 3.95
LHRHAYPEQRQ [DPPA2_Y127] | 1.19 | 1.11 | 1.14 | 0.789 | 0.505 | 0.619 | 0.487 | 0.449 | 0.967 | 0.532 | 0.704 | 0.577 | 0.594 | 0.53 | 0.434 | 0.502
LIQRNYKLAAQ [ALPK2_Y1975] | 0.399 | 0.649 | 0.961 | 0.773 | 0.937 | 1.19 | 0.72 | 0.49 | 1.21 | 0.576 | 0.833 | 0.962 | 0.604 | 0.44 | 1.13 | 0.571
LIYTNYEVGKD [GSTP1_Y112_A114V] | 0.801 | 1.09 | 1.12 | 14.1 | 7.05 | 2.37 | 11.3 | 8.72 | 1.96 | 17.7 | 8.89 | 5.54 | 16.8 | 1.33 | 13.4 | 11.9
LKRCQYVTEKV [ALDOA_Y204] | 0.53 | 0.654 | 0.742 | 1.24 | 1.11 | 1.59 | 0.672 | 0.796 | 1.75 | 0.794 | 0.689 | 0.924 | 0.89 | 2.26 | 1.9 | 0.823
LLGFLYFFVCS [SLC34A2_Y109] | 0.776 | 1.22 | 1.06 | 2.89 | 1.03 | 1.66 | 1.04 | 2.1 | 3.17 | 1.43 | 0.948 | 1.81 | 1.76 | 2.88 | 1.17 | 1.26
LLILEYAKFGS [RET_Y806_V804L_YF] | 1.21 | 1.76 | 2.19 | 0.635 | 0.85 | 1.34 | 0.585 | 0.976 | 1.52 | 0.699 | 0.901 | 1.38 | 0.991 | 1.15 | 1.49 | 1.01
LLKAKYELLNA [POLR3A_Y714] | 1.95 | 0.444 | 0.964 | 0.544 | 0.423 | 0.582 | 0.418 | 0.405 | 0.614 | 0.423 | 0.496 | 0.493 | 0.491 | 0.707 | 0.454 | 0.466
LLLLFCVVRYC [MPZ_Y177_Y177C] | 1.41 | 1.58 | 2.53 | 4.58 | 3.08 | 3.01 | 2.94 | 2.84 | 2.07 | 1.14 | 2.16 | 2.14 | 2.48 | 3.14 | 2.47 | 1.78
LLNPSYNLPLD [TOM1L1_Y109_R108S] | 0.833 | 0.618 | 0.685 | 0.855 | 0.595 | 1.22 | 0.854 | 0.523 | 1.45 | 0.808 | 1.07 | 1.14 | 0.711 | 0.908 | 1.26 | 0.979
LLVVVYKYRCY [PSEN1_Y154_L153V] | 0.829 | 2.37 | 2.16 | 1.65 | 1.08 | 2 | 0.474 | 0.662 | 3.48 | 1.25 | 1.08 | 1.22 | 1.22 | 0.994 | 2.05 | 0.703
LMVFEYMRHGN [NTRK1_Y591_D596N] | 1.19 | 1.89 | 1.65 | 0.912 | 0.55 | 0.998 | 0.457 | 0.539 | 1.44 | 0.466 | 0.597 | 0.707 | 0.692 | 1.54 | 0.797 | 0.664
LNPLVYTLRNA [OR4C12_Y285_V283L] | 1.02 | 0.893 | 1.22 | 1.19 | 1.01 | 1.05 | 1.21 | 3.54 | 1.51 | 0.76 | 1.81 | 1.04 | 1.28 | 1.1 | 0.712 | 2.22
LNTFHYAGVSA [POLR2A_Y1109] | 1.32 | 1.64 | 0.9 | 0.552 | 0.407 | 0.656 | 0.449 | 0.464 | 0.722 | 0.469 | 0.45 | 0.56 | 0.415 | 0.584 | 0.434 | 0.419
LNWIYYKDQTG [RS1_Y166] | 1.18 | 1.07 | 1.38 | 1.13 | 1.4 | 2.25 | 0.787 | 1.06 | 2.51 | 0.888 | 1.35 | 2 | 1.35 | 2.21 | 1.58 | 1.32
